In this assay the target is T1, Cyt1Aa (Bacillus thuringiensis subsp. …, UniProt P0A382).
T1 chain: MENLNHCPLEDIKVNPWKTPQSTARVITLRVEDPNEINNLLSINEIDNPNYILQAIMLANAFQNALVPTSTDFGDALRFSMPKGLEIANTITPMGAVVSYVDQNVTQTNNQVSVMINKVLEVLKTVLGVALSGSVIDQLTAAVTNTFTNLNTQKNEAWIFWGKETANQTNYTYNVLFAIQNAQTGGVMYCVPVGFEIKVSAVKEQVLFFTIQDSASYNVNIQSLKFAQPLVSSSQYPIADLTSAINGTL
As to the kind of experiment: ELISA. (In general: ELISA stands for enzyme-linked immunosorbent assay.)

In general, Kd refers to a measure of binding affinity in units of concentration. High values mean a looser complex, low ones a tighter complex.

B1: Cry4Ba (protein)
chain: NSGYPLANDLQGSMKNTNYKDWLAMCENNQQYGVNPAAINSSSVSTALKVAGAILKFVNPPAGTVLTVLSAVLPILWPTNTPTPERVWNDFMTNTGNLIDQTVTAYVRTDANAKMTVVKDYLDQYTTKFNTWKREPNNQSYRTAVITQFNLTSAKLRETAVYFSNLVGYELLLLPIYAQVANFNLLLIRDGLINAQEWSLARSAGDQLYNTMVQYTKEYIAHSITWYNKGLDVLRNKSNGQWITFNDYKREMTIQVLDILALFASYDPRRYPADKIDNTKLSKTEFTREIYTALVESPSSKSIAALEAALTRDVHLFTWLKRVDFWTNTIYQDLRFLSANKIGFSYTNSSAMQESGIYGSSGFGSNLTHQIQLNSNVYKTSITDTSSPSNRVTKMDFYKIDGTLASYNSNITPTPEGLRTTFFGFSTNENTPNQPTVNDYTHILSYIKTDVIDYNSNRVSFAWTHKIVDPNNQIYTDAITQVPAVKSNFLNATAKVIKGPGHTGGDLVALTSNGTLSGRMEIQCKTSIFNDPTRSYGLRIRYAANSPIVLNVSYVLQGVSRGTTISTESTFSRPNNIIPTDLKYEEFRYKDPFDAIVPMRLSSNQLITIAIQPLNMTSNNQVIIDRIEIIPITQSVLDETENQNLESEREVVNALFTNDAKDALNIGTTDYDIDQAANLVECISEELYPKEKMLLLDEVKNAKQLSQSRNVLQNGDFESATLGWTTSDNITIQEDDPIFKGHYLHMSGARDIDGTIFPTYIFQKIDESKLKPYTRYLVRGFVGSSKDVELVVSRYGEEIDAIMNVPADLNYLYPSTFDCEGSNRCETSAVPANIGNTSDMLYSCQYDTGKKHVVCQDSHQFSFTIDTGALDTNENIGVWVMFKISSPDGYASLDNLEVIEEGPIDGEALSRVKHMEKKWNDQMEAKRSETQQAYDVAKQAIDALFTNVQDEALQFDTTLAQIQYAEYLVQSIPYVYNDWLSDVPGMNYDIYVELDARVAQARYLYDTRNIIKNGDFTQGVMGWHVTGNADVQQIDGVSVLVLSNWSAGVSQNVHLQHNHGYVLRVIAKKEGPGNGYVTLMDCEENQEKLTFTSCEEGYITKTVDVFPDTDRVRIEIGETEGSFYIESIELICMNE
modifications: trypsin-activated Cry4Ba, proteinase K-activated Cyt1Aa
Take B1: the Kd was 47 nM.

The values are drawn from PMC2990805 (2012).
